Key:
[1] = molecular target: T1, human VEGF receptor-1 (Homo sapiens, UniProt P17948); test: GST pull-down association assay, VEGFR-1; type: binding; conditions: HEK 293 lysate expressing His-tagged full-length KAPh
T1 construct: the intracellular domain of each receptor tyrosine kinase was generated as an in-frame GST fusion; made in house; host or cells: Sf9 insect cells (baculovirus)
T1 sequence (P17948 781-1338 limits assumed): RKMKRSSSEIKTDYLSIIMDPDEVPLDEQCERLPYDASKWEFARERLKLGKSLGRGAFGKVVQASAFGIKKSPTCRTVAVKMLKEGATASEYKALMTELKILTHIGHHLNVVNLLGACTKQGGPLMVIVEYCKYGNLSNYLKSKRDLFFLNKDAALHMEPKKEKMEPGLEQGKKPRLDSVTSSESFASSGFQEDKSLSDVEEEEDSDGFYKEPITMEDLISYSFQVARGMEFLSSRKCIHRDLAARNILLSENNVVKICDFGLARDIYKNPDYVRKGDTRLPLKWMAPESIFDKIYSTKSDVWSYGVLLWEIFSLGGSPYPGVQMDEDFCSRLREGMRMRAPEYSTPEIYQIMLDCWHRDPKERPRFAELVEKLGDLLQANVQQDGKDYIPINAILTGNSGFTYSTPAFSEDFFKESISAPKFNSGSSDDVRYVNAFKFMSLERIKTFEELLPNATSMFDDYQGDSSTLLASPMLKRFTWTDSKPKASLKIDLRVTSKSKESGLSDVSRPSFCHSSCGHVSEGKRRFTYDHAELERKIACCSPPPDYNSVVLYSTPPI
Text: (§1) Recombinant VEGFR-1 kinase (wild-type and K862R mutant), VEGFR2 kinase (wild-type and K870R mutant), Tie1 kinase (wild-type and K871R mutant), and Tie2 kinase (wild-type and K856R mutant) were expressed as glutathione S-transferase (GST) fusion proteins in Sf9 cells using a baculovirus expression system. Briefly, the intracellular domain of each receptor tyrosine kinase was generated as an in-frame GST fusion using the pAcGHLT baculovirus transfer vector (Pharmingen, San Diego, Calif.). Each baculovirus transfer vector construct was cotransfected with BaculoGold (Pharmingen, San Diego, Calif.) linearized AcNPV baculovirus DNA into Sf9 cells for the generation of recombinant baculoviruses. Five days post-transfection, recombinant baculoviruses were harvested and amplified by re-infection of Sf9 cells. Each amplified baculovirus was then used to infect Sf9 cells for the expression of the recombinant kinases. […]
(§2) The immobilized, autophosphorylated kinases were then incubated with HEK 293 cell lysates which overexpressed either the KAPh SH2 domain or KAPh full-length protein. […] KAPh protein that associated with the recombinant kinases was analyzed by Western blot using a chemiluminescence detection system (Amersham Pharmacia, Piscataway, N.J.).

[2] = Peptide phosphatase assay (BIOMOL green); type: biochemical; conditions: any peptide substrates examined; data not shown
[3] = molecular target: T2, human VEGFR2 intracellular domain (Homo sapiens, UniProt P35968, K868R); test: Yeast two-hybrid interaction with intracellular domain of VEGFR2; type: binding; conditions: ATP binding site mutated (K870R)
T2 construct: expressed in transfected cells; host or cells: yeast strain MaV203 (pDBLeu-hVEGFR2)
Text: (§3) All two-hybrid plasmid constructs used the pDBLeu and pPC86 yeast expression vectors as a part of the ProQuest Two-Hybrid System (Life Technologies, Rockville, Md.). A cDNA encoding the intracellular domain of human VEGFR2 was generated by PCR from a human VEGFR2/pJFE14 construct, obtained from Regeneron Pharmaceuticals (Tarrytown, N.Y.), and subcloned into the yeast bait vector downstream of the GAL4 DNA-binding domain. A human umbilical vein endothelial cell (HUVEC) cDNA library (in pPC86) was co-transformed with pDBLeu-hVEGFR2 into the MaV203 strain of yeast. Proteins that interacted with the intracellular domain of human VEGFR2 were selected and tested for specificity according to the manufacturer's instructions.
(§4) In an ongoing effort to understand mechanisms by which the biological activity of VEGF is mediated through the VEGF receptor-2 (KDR/Flk-1), we used the entire cytoplasmic domain of KDR as bait to screen human umbilical vein endothelial cell (HUVEC) and human fetal brain cDNA libraries in the yeast two-hybrid system. The intracellular domain of human VEGFR2 (790-1357 SEQ ID NO 8) was constructed in the bait plasmid (pDBLeu) and the cDNA libraries were constructed in the prey plasmid (pPC86). Following transformation of yeast, positive clones were selected by growth on histidine-deficient media and for the expression of β-galactosidase activity (X-gal selection). […]

[4] = molecular target: T3, human VEGFR2 intracellular domain (Homo sapiens, UniProt P35968); test: as above; type: binding; conditions: growth on histidine-deficient and uracil-deficient media
T3 construct: expressed in transfected cells; host or cells: yeast strain MaV203 (pDBLeu-hVEGFR2)
Text: as §3, §4

[5] = tested on: Tie 1; test: GST pull-down association assay, Tie 1; type: binding, human; conditions: wild-type and kinase-inactive mutant
Text: as §1, §2

[6] = Phosphatase activity with fluorogenic substrate DiFMUP; type: biochemical
Description: Purified, recombinant KAPh phosphatase domain (amino acids 83-464 SEQ ID NO 4) (100 μg/mL) and full-length PTEN (amino acids 1-403) (100 μg/mL) were each mixed with a fluorogenic phosphatase substrate 6,8-difluoro-4-methylumbelliferyl phosphate (DiFMUP) (Molecular Probes, Eugene, Oreg.) at a final concentration of a 100 μM in assay buffer (10 mM sodium acetate, pH 6.0, 150 mM NaCl, 5 mM DTT). Following incubation at ambient temperature for 15 or 60 min., the fluorescence intensity of the 6,8-difluoro-4-methylumbelliferone (DiFMU) product was measured in triplicate and used as an assessment of phosphatase activity. A Victor 5 microplate reader from Wallac (Turku, Finland) was used to read the fluorescence intensity from 384-well microplates (Corning Inc., Corning, N.Y.).

[7] = molecular target: T4, human VEGF receptor-2 (KDR) (Homo sapiens, UniProt P35968); test: GST pull-down association assay, VEGFR2; type: binding; conditions: HEK 293 lysate expressing His-tagged protein; Western blot
T4 construct: the intracellular domain of each receptor tyrosine kinase was generated as an in-frame GST fusion; made in house; host or cells: Sf9 insect cells (baculovirus)

[8] = molecular target: T5, human VEGF receptor-2 (KDR) (Homo sapiens, UniProt P35968, Y1175F); test: GST pull-down association assay, VEGFR2; type: binding; conditions: GST fusion Y1175F versus wild-type
T5 construct: the intracellular domain of each receptor tyrosine kinase was generated as an in-frame GST fusion; made in house; host or cells: Sf9 insect cells (baculovirus)

[9] = molecular target: T6, human VEGF receptor-2 (KDR) (Homo sapiens, UniProt P35968, Y951F); test: GST pull-down association assay, VEGFR2; type: binding; conditions: GST fusion Y951F versus wild-type
T6 construct: the intracellular domain of each receptor tyrosine kinase was generated as an in-frame GST fusion; made in house; host or cells: Sf9 insect cells (baculovirus)
T6 sequence (P35968 790-1356 Y951F): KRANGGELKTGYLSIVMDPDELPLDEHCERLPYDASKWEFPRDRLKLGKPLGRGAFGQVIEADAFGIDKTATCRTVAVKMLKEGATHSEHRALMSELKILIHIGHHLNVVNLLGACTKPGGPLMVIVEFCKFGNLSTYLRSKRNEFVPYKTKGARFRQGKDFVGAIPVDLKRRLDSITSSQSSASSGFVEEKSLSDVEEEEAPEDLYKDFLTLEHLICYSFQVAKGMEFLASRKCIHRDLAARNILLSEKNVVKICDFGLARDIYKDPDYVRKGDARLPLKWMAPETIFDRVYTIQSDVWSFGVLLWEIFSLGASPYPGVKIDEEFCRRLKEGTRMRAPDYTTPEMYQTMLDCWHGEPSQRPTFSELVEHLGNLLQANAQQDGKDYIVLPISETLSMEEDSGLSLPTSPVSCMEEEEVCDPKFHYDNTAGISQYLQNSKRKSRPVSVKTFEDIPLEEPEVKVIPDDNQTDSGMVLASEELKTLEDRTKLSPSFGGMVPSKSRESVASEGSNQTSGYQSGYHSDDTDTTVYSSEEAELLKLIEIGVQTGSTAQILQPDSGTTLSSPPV

T2 sequence (P35968 790-1356 K868R): as the sequence (P35968 790-1356 Y951F) above, with K79R, F162Y counted along it
T5 sequence (P35968 790-1356 Y1175F): as the sequence (P35968 790-1356 Y951F) above, with F162Y, Y386F counted along it
T4 sequence (P35968 790-1356): as the sequence (P35968 790-1356 Y951F) above, with F162Y counted along it
T3 sequence (P35968 790-1356): as the sequence (P35968 790-1356 Y951F) above, with F162Y counted along it

yeast two-hybrid interaction with KDR K870R mutant [3]: essentially no significant interaction | yeast two-hybrid interaction with wild-type KDR [4]: robust protein-protein interaction | fluorescent product (DiFMU) generated, fold over buffer control ([6]; 100 μg/mL protein, 100 μM DiFMUP, pH 6.0, ambient temperature, 60 min incubation): ~10 fold | interaction with VEGFR2 Y1175F mutant [8]: nearly abolished | association with VEGFR2 Y951F mutant [9]: no significant change in association
B1: KAPh: novel human KDR Associated Phosphatase protein, full-length sequence SEQ ID NOS 1 and 2 (protein, listed as Homo sapiens)
chain: MKPRKAEPHSFREKVFRKKPPVCAVCKVTIDGTGVSCRVCKVATHRKCEAKVTSACQALPPVELRRNTAPVRRIEHLGSTKSLNHSKQRSTLPRSFSLDPLMERRWDLDLTYVTERILAAAFPARPDEQRHRGHLRELAHVLQSKHRDKYLLFNLSEKRHDLTRLNPKVQDFGWPELHAPPLDKLCSICKAMETWLSADPQHVVVLYCKGNKGKLGVIVSAYMHYSKISAGADQALATLTMRKFCEDKVATELQPSQRRYISYFSGLLSGSIRMNSSPLFLHYVLIPMLPAFEPGTGFQPFLKIYQSMQLVYTSGVYHIAGPGPQQLCISLEPALLLKGDVMVTCYHKGGRGTDRTLVFRVQFHTCTIHGPQLTFPKDQLDEAWTDERFPFQASVEFVFSSSPEKIKGSTPRNDPSVSVDYNTTEPAVRWDSYENFNQHHEDSVDGSLTHTRGPLDGSPYAQVQRPPRQTPPAPSPEPPPPPMLSVSSDSGHSSTLTTEPAAESPGRPPPTAAERQELDRLLGGCGVASGGRGAGRETAILDDEEQPTVGGGPHLGVYPGHRPGLSRHCSCRQGYREPCGVPNGGYYRPEGTLERRRLAYGGYEGSPQGYAEASMEKRRLCRSLSEGLYPYPPEMGKPATGDFGYRAPGYREVVILEDPGLPALYPCPACEEKLALPTAALYGLRLEREAGEGWASEAGKPLLHPVRPGHPLPLLLPACGHHHAPMPDYSCLKPPKAGEEGHEGCSYTMCPEGRYGHPGYPALVTYSYGGAVPSYCPAYGRVPHSCGSPGEGRGYPSPGAHSPRAGSISPGSPPYPQSRKLSYEIPTEEGGDRYPLPGHLASAGPLASAESLEPVSWREGPSGHSTLPRSPRDAPCSASSELSGPSTPLHTSSPVQGKESTRRQDTRSPTSAPTQRLSPGEALPPVSQAGTGKAPELPSGSGPEPLAPSPVSPTFPPSSPSDWPQERSPGGHSDGASPRSPVPTTLPGLRHAPWQGPRGPPDSPDGSPLTPVPSQMPWLVASPEPPQSSPTPAFPLAASYDTNGLSQPPLPEKRHLPGPGQQPGPWGPEQASSPARGISHHVTFAPLLSDNVPQTPEPPTQESQSNVKFVQDTSKFWYKPHLSRDQAIALLKDKDPGAFLIRDSHSFQGAYGLALKVATPPPSAQPWKGDPVEQLVRHFLIETGPKGVKIKGCPSEPYFGSLSALVSQHSISPISLPCCLRILSKDPLEETPEAPVPTNMSTAADLLRQGAACSVLYLTSVETESLTGPQAVARASSAALSCSPRPTPAVVHFKVSAQGITLTDNQRKLFFRRHYPVNSITFSSTDPQDRRWTNPDGTTSKIFGFVAKKPGSPWENVCHLFAELDPDQPAGAIVTFITKVLLGQRK
interaction with GST VEGFR-1, wild-type versus K862R [1]: weak, but reproducible, autophosphorylation-dependent interaction | phosphatase activity using peptide substrates [2]: unable to detect significant, reproducible phosphatase activity | interaction with GST Tie 1 [5]: no interaction | phosphatase activity against DiFMUP relative to PTEN ([6]; KAPh versus PTEN): 1- to 2 fold | interaction with GST VEGFR2, wild-type versus catalytically inactive K870R [7]: interacted in an autophosphorylation-dependent manner

Source: patent publication US20030158083A1, “Method of effecting angiogenesis by modulating the function of a novel endothelia phosphatase” (The Procter & Gamble Company, priority 2002, published 2003)
